The record followed here is patent US20230265151A1, “GIP/GLP1 CO-AGONIST COMPOUNDS” (priority 2020, published 2023).

Holding throughout (assay): cell-based or functional assay
The target of one assay is T1, human GIP receptor (human, UniProt P48546 22-466).
T1 sequence (looked up): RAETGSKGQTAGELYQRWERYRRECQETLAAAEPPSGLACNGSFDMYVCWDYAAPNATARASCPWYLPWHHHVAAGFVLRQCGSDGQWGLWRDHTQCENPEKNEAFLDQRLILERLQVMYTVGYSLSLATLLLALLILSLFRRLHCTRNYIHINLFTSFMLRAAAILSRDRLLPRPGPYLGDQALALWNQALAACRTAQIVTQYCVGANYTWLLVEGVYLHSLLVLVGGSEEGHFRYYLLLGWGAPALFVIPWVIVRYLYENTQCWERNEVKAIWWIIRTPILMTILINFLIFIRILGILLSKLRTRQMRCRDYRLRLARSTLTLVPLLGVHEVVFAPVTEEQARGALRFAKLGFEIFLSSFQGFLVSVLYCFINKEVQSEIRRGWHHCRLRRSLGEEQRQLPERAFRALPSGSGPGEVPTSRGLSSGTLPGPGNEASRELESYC

In the next assay the target is human GLP-1 receptor (human, UniProt P43220 24-463).
For the next assay, the target named is human glucagon receptor (human, UniProt P47871 26-477).
human glucagon receptor, sequence (P47871 26-477): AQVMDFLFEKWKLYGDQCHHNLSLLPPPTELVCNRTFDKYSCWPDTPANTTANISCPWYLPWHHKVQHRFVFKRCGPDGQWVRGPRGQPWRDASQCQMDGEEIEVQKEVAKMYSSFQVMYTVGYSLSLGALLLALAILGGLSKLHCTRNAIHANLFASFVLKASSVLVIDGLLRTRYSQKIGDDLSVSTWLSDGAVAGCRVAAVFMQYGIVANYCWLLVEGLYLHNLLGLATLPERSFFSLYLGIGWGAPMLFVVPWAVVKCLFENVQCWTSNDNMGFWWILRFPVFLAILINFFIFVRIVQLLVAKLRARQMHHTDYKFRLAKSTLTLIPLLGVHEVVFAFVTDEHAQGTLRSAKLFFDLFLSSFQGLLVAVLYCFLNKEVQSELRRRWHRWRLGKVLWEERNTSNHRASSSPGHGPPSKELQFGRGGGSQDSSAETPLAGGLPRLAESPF

Residue numbers refer to the chain shown, from its start. *1 amine or outer side, *2 acyl side, *3 side chain or, on linkers, in order; H or OH if unused. Where no end group is shown, it is not given here. Side-chain parts run from the residue outwards. [ ]: non-standard residue; d: D form. The star is where a group is joined. Decanoyl(10-(4-HOOC-PhO)) = O=C(O)c1ccc(OCCCCCCCCCC(=O)*)cc1; αMePhe(2-F) = C[C@](N)(Cc1ccccc1F)C(=O)O; γGlu = O=C(O)[C@H](CCC(=O)[*:2])N[*:1]; C14 diacid = O=C(O)CCCCCCCCCCCCC(=O)*; αMeY = C[C@](N)(Cc1ccc(O)cc1)C(=O)O; αMeL = CC(C)C[C@](C)(N)C(=O)O; Orn = NCCC[C@H](N)C(=O)O; AEEA = NCCOCCOCC(=O)O; Aib = CC(C)(N)C(=O)O

Turning to Y[Aib]EGT[αMePhe(2-F)]TSDV[Aib]I[αMeL]LD[Orn]QAQ[Aib][Orn]FIK([AEEA-AEEA-γGlu-Decanoyl(10-(4-HOOC-PhO))])[αMeY]LIK([AEEA-AEEA-γGlu-Decanoyl(10-(4-HOOC-PhO))])GGPSSGAPPPS-NH2 [Example 447], the “cAMP EC50 (1.0% HSA)” value with human GIP receptor was 1.46 nM; in the assay with human GLP-1 receptor, 7.85 nM; with human glucagon receptor, > 9950 nM. Besides, the “cAMP Emax (1.0% HSA)” value with human GLP-1 receptor worked out at 98.4%.

B1: Example 448 (peptide)
peptide: Y[Aib]EGT[αMePhe(2-F)]TSDV[Aib]I[αMeL]LD[Orn]QAQ[Aib][Orn]FIK([AEEA-AEEA-γGlu-C14 diacid])[αMeY]LIK([AEEA-AEEA-γGlu-C14 diacid])GGPSSGAPPPS-NH2
modifications: N-terminus assumed
SMILES: CC[C@H](C)[C@H](NC(=O)[C@H](CC(C)C)NC(=O)[C@](C)(Cc1ccc(O)cc1)NC(=O)[C@H](CCCCNC(=O)COCCOCCNC(=O)COCCOCCNC(=O)CC[C@H](NC(=O)CCCCCCCCCCCCC(=O)O)C(=O)O)NC(=O)[C@@H](NC(=O)[C@H](Cc1ccccc1)NC(=O)[C@H](CCCN)NC(=O)C(C)(C)NC(=O)[C@H](CCC(N)=O)NC(=O)[C@H](C)NC(=O)[C@H](CCC(N)=O)NC(=O)[C@H](CCCN)NC(=O)[C@H](CC(=O)O)NC(=O)[C@H](CC(C)C)NC(=O)[C@](C)(CC(C)C)NC(=O)[C@@H](NC(=O)C(C)(C)NC(=O)[C@@H](NC(=O)[C@H](CC(=O)O)NC(=O)[C@H](CO)NC(=O)[C@@H](NC(=O)[C@](C)(Cc1ccccc1F)NC(=O)[C@@H](NC(=O)CNC(=O)[C@H](CCC(=O)O)NC(=O)C(C)(C)NC(=O)[C@@H](N)Cc1ccc(O)cc1)[C@@H](C)O)[C@@H](C)O)C(C)C)[C@@H](C)CC)[C@@H](C)CC)C(=O)N[C@@H](CCCCNC(=O)COCCOCCNC(=O)COCCOCCNC(=O)CC[C@H](NC(=O)CCCCCCCCCCCCC(=O)O)C(=O)O)C(=O)NCC(=O)NCC(=O)N1CCC[C@H]1C(=O)N[C@@H](CO)C(=O)N[C@@H](CO)C(=O)NCC(=O)N[C@@H](C)C(=O)N1CCC[C@H]1C(=O)N1CCC[C@H]1C(=O)N1CCC[C@H]1C(=O)N[C@@H](CO)C(N)=O
On to B1, for which the “cAMP EC50 (1.0% HSA)” value in the assay with human GIP receptor is 1.41 nM; with human GLP-1 receptor, 7.91 nM; in the assay with human glucagon receptor, > 9950 nM. In the assay with human GLP-1 receptor, the “cAMP Emax (1.0% HSA)” value turned out to be 99.5%.

B2: Example 375 (peptide)
peptide: YXEGTXTSDYXIXLDXIAQXEFIKXLIKGGPSSGAPPPS
modifications: Y-Aib-EGT-αMeF(2F)-TSDY-Aib-I-αMeL-LD-Orn-IAQ-Aib-EFIK((2-[2-(2-Amino-ethoxy)-ethoxy]-acetyl)-(γ-Glu)-(10-(4-carboxyphenoxy)decanoyl))-αMeY-LIK((2-[2-(2-Amino-ethoxy)-ethoxy]-acetyl)-(γ-Glu)-(10-(4-carboxyphenoxy)decanoyl))GGPSSGAPPPS-NH2
With B2, the results for the “cAMP EC50 (1.0% HSA)” value with human GIP receptor, with human GLP-1 receptor and in the assay with human glucagon receptor were 4.68 nM, 56.1 nM and > 9950 nM, respectively.

B3: Example 412 (peptide)
peptide: B2 peptide with I17Q
modifications: Y-Aib-EGT-αMeF(2F)-TSDY-Aib-I-αMeL-LD-Orn-QAQ-Aib-EFIK((2-[2-(2-Amino-ethoxy)-ethoxy]-acetyl)2-(γ-Glu)-CO-(CH2)12-CO2H)-αMeY-LIK((2-[2-(2-Amino-ethoxy)-ethoxy]-acetyl)2-(γ-Glu)-CO-(CH2)12-CO2H)GGPSSGAPPPS-NH2
Take B3: the “cAMP EC50 (1.0% HSA)” value is 1.57 nM in the assay with human GIP receptor, 18.3 nM with human GLP-1 receptor and > 9950 nM in the assay with human glucagon receptor. Moreover, in the assay with human GIP receptor, the “cAMP Emax (1.0% HSA)” value is 87.5%.

B4: Example 449 (peptide)
peptide: B2 peptide with Y10X, I17Q, E21X
modifications: not fully specified; Y-Aib-EGT-αMeF(2F)-TSD-4Pal-Aib-I-αMeL-LD-Orn-QAQ-Aib-Orn-FIK((2-[2-(2-Amino-ethoxy)-ethoxy]-acetyl)-Ahx-(γ-Glu)-CO-(CH2)12-CO2)-αMeY-LIK((2-[2-(2-Amino-ethoxy)-ethoxy]-acetyl)-Ahx-(γ-Glu)-CO-(CH2)12-CO2)GGPSSGAPPPS-NH2
Consider B4, for which the “cAMP EC50 (1.0% HSA)” value in the assay with human GIP receptor was 0.595 nM; in the assay with human GLP-1 receptor, 7.27 nM; in the assay with human glucagon receptor it was > 9950 nM.

B5: Example 451 (peptide)
peptide: B2 peptide with Y10X, I17Q, E21X
modifications: not fully specified; Y-Aib-EGT-αMeF(2F)-TSD-4Pal-Aib-I-αMeL-LD-Orn-QAQ-Aib-Orn-FIK(Ahx-(2-[2-(2-Amino-ethoxy)-ethoxy]-acetyl)-(γ-Glu)-CO-(CH2)12-CO2)-αMeY-LIK(Ahx-(2-[2-(2-Amino-ethoxy)-ethoxy]-acetyl)-(γ-Glu)-CO-(CH2)12-CO2)GGPSSGAPPPS-NH2
For the molecule B5, the “cAMP EC50 (1.0% HSA)” value with human GIP receptor is 0.518 nM; with human GLP-1 receptor, 7.23 nM; with human glucagon receptor it was > 9950 nM.

B6: Example 441 (peptide)
peptide: B2 peptide with Y10X, I12G, I17Q, E21X
modifications: Y-Aib-EGT-αMeF(2F)-TSD-4Pal-Aib-G-αMeL-LD-Orn-QAQ-Aib-Orn-FIK((2-[2-(2-Amino-ethoxy)-ethoxy]-acetyl)2-(γ-Glu)-CO-(CH2)12-CO2H)-αMeY-LIK((2-[2-(2-Amino-ethoxy)-ethoxy]-acetyl)2-(γ-Glu)-CO-(CH2)12-CO2H)GGPSSGAPPPS-NH2
For the molecule B6, the results for the “cAMP EC50 (1.0% HSA)” value in the assay with human GIP receptor, with human GLP-1 receptor and with human glucagon receptor were 1.38 nM, 5.75 nM and > 9950 nM, respectively. The figures for the “cAMP Emax (1.0% HSA)” value with human GIP receptor and with human GLP-1 receptor were 83.8% and 111%, respectively.

B7: Example 450 (peptide)
peptide: B2 peptide with Y10X, I17Q, E21X
modifications: not fully specified; Y-Aib-EGT-αMeF(2F)-TSD-4Pal-Aib-I-αMeL-LD-Orn-QAQ-Aib-Orn-FIK((2-[2-(2-Amino-ethoxy)-ethoxy]-acetyl)-Aoc-(γ-Glu)-CO-(CH2)12-CO2)-αMeY-LIK((2-[2-(2-Amino-ethoxy)-ethoxy]-acetyl)-Aoc-(γ-Glu)-CO-(CH2)12-CO2)GGPSSGAPPPS-NH2
As to B7, the “cAMP EC50 (1.0% HSA)” value with human GIP receptor was 2.44 nM; with human GLP-1 receptor, 32.3 nM; with human glucagon receptor it was > 9950 nM.

B8: Example 391 (peptide)
peptide: B2 peptide with Y10X, I17Q, E21X
modifications: Y-Aib-EGT-αMeF(2F)-TSD-4Pal-Aib-I-αMeL-LD-Orn-QAQ-Aib-Orn-FIK((2-[2-(2-Amino-ethoxy)-ethoxy]-acetyl)2-(γ-Glu)-CO-(CH2)12-CO2H)-αMeY-LIK((2-[2-(2-Amino-ethoxy)-ethoxy]-acetyl)2-(γ-Glu)-CO-(CH2)12-CO2H)GGPSSGAPPPS-NH2
In the case of B8, the “cAMP EC50 (1.0% HSA)” value with human GIP receptor was 0.266 nM; with human GLP-1 receptor, 2.62 nM; in the assay with human glucagon receptor, > 9950 nM.

B9: Example 442 (peptide)
peptide: B2 peptide with Y10X, I17Q, E21X
modifications: Y-Aib-EGT-αMeF(2F)-TSD-4Pal-Aib-I-αMeL-LD-Orn-QAQ-Aib-Orn-FIK(2-[2-(2-Amino-ethoxy)-ethoxy]-acetyl)2-(γ-Glu)-(11-(4-carboxyphenoxy)undecanoyl)-αMeY-LIK((2-[2-(2-Amino-ethoxy)-ethoxy]-acetyl)2-(γ-Glu)-(11-(4-carboxyphenoxy)undecanoyl)GGPSSGAPPPS-NH2)
B9: the “cAMP EC50 (1.0% HSA)” value with human GIP receptor is 0.687 nM; with human GLP-1 receptor, 7.63 nM; in the assay with human glucagon receptor, > 9950 nM.
